This note sets out measurements from PMC5849714, “Direct coupling of detergent purified human mGlu5 receptor to the heterotrimeric G proteins Gq and Gs” (Scientific Reports, 2018).

Where a chain is given by its changes, count along the chain named.

Data set [1] concerns the molecule itself. In words: non-reducing SDS-PAGE; SNAP-Red-labelled receptor extracted from HEK293 cells with detergent, non-purified material; non-reducing conditions; fluorescence scan of the gel.
Data set [2] deals with the molecule itself. As to the kind of experiment: non-reducing SDS-PAGE; purified receptor from Sf9 after SEC, Coomassie-blue stained gel; bands identified by mass spectrometry; reducing reagent raised the monomer band.

B1: SNAP-mGlu5-Δ856 (FLAG-SNAP-tagged human mGlu5 receptor truncated after A856) (receptor, UniProt P41594-2 21-856, looked up)
chain: QSSERRVVAHMPGDIIIGALFSVHHQPTVDKVHERKCGAVREQYGIQRVEAMLHTLERINSDPTLLPNITLGCEIRDSCWHSAVALEQSIEFIRDSLISSEEEEGLVRCVDGSSSSFRSKKPIVGVIGPGSSSVAIQVQNLLQLFNIPQIAYSATSMDLSDKTLFKYFMRVVPSDAQQARAMVDIVKRYNWTYVSAVHTEGNYGESGMEAFKDMSAKEGICIAHSYKIYSNAGEQSFDKLLKKLTSHLPKARVVACFCEGMTVRGLLMAMRRLGLAGEFLLLGSDGWADRYDVTDGYQREAVGGITIKLQSPDVKWFDDYYLKLRPETNHRNPWFQEFWQHRFQCRLEGFPQENSKYNKTCNSSLTLKTHHVQDSKMGFVINAIYSMAYGLHNMQMSLCPGYAGLCDAMKPIDGRKLLESLMKTNFTGVSGDTILFDENGDSPGRYEIMNFKEMGKDYFDYINVGSWDNGELKMDDDEVWSKKSNIIRSVCSEPCEKGQIKVIRKGEVSCCWTCTPCKENEYVFDEYTCKACQLGSWPTDDLTGCDLIPVQYLRWGDPEPIAAVVFACLGLLATLFVTVVFIIYRDTPVVKSSSRELCYIILAGICLGYLCTFCLIAKPKQIYCYLQRIGIGLSPAMSYSALVTKTNRIARILAGSKKKICTKKPRFMSACAQLVIAFILICIQLGIIVALFIMEPPDIMHDYPSIREVYLICNTTNLGVVTPLGYNGLLILSCTFYAFKTRNVPANFNEAKYIAFTMYTTCIIWLAFVPIYFGSNYKIITMCFSVSLSATVALGCMFVPKVYIILAKPERNVRSAFTTSTVVRMHVGDGKSSSAA
modifications: SNAP tag labelled with a cell-impermeant red fluorophore (SNAP-Red)
notes: metabotropic glutamate receptor 5 (mGlu5), human, truncated after A856 by a stop codon; Construct from Cisbio Bioassays; the SNAP tag is extracellular; also called SNAP-Tag C-terminal mGlu5-Δ856 receptor; hmGlu5-ΔCter-A856; source: HEK293, transiently transfected; extracted with MNG3/CHS, not purified; on cells in the cAMP assay
For B1, in data set [1], the “stoichiometry N” value was 2.

B2: mGlu5-Δ856-eGFP (receptor, human, UniProt P41594-2 21-856, looked up)
chain: B1 chain with N425A
notes: metabotropic glutamate receptor 5 (mGlu5), human, truncated after A856; GP64 signal peptide (AcNPV) at the N-terminus; TEV protease site between receptor and eGFP, then 10x His; Theoretical MW printed: monomer 124,784 Da; also called mGlu5-eGFP; not shown: eGFP, C-terminal, kept
Take B2: the “stoichiometry N” value in data set [2] came out at 2.

As usually defined, the stoichiometry N is a count of units in the complex or per binding partner.
